Target: RsPGs (polygalacturonases from Rhizoctonia solani) (Rhizoctonia solani)

With “OsPGIP2^L233F, recombinant His-tagged (natural protein)” as the substance, how does the reduction of RsPG activity, reduced sugar assay (polygalacturonic acid, 50 mM sodium citrate pH 5.0, 37 °C, 1 h) read?
The reduction of RsPG activity, reduced sugar assay (polygalacturonic acid, 50 mM sodium citrate pH 5.0, 37 °C, 1 h) was 40.6%.
